In paper PMC5818494 (Scientific Reports, 2018):

Columns and labels:
[1] = molecular target: the molecule itself; assay: crystal structure; MBP-JMJD7 (20 mg/ml), vapor diffusion, 100 mM Citrate Sodium, 20% PEG 3350, 4 °C; in the absence of α-KG; two molecules in one asymmetric unit
[2] = molecular target: the molecule itself; assay: crystal structure; mJMJD7 (from GST-mJMJD7, tag removed, 10 mg/ml), vapor diffusion, 0.1 M MES monohydrate pH6.0, 10% PEG4000, 4 °C; in the presence of α-KG; two molecules in one asymmetric unit

B1: MBP-JMJD7 fusion protein (with a truncated linker) (enzyme, mouse)
chain: MAEAALEAVRRALQEFPAAARDLNVPRVVPYLDEPPSPLCFYRDWVCPNRPCIIRNALQHWPALQKWSLSYLRATVGSTEVSVAVTPDGYADAVRGDRFVMPAERRLPISHVLDVLEGRAQHPGVLYVQKQCSNLPTELPQLLSDIESHVPWASESLGKMPDAVNFWLGDASAVTSLHKDHYENLYCVVSGEKHFLLHPPSDRPFIPYNLYTPATYQLTEEGTFRVVDEEAMEKVPWIPLDPLAPDLTQYPSYSQAQALHCTVRAGEMLYLPALWFHHVQQSHGCIAVNFWYDMEYDLKYSYFQLMDTLTRATGLD
notes: JMJD7, mouse; Crystallised as the fusion; MBP (PDB 1HSJ) was a search model for molecular replacement
stoichiometry N [1]: 2

B2: JMJD7 (mouse), JMJD7 protein alone generated from GST-JMJD7 fusion protein (enzyme)
chain: MAEAALEAVRRALQEFPAAARDLNVPRVVPYLDEPPSPLCFYRDWVCPNRPCIIRNALQHWPALQKWSLSYLRATVGSTEVSVAVTPDGYADAVRGDRFVMPAERRLPISHVLDVLEGRAQHPGVLYVQKQCSNLPTELPQLLSDIESHVPWASESLGKMPDAVNFWLGDASAVTSLHKDHYENLYCVVSGEKHFLLHPPSDRPFIPYNLYTPATYQLTEEGTFRVVDEEAMEKVPWIPLDPLAPDLTQYPSYSQAQALHCTVRAGEMLYLPALWFHHVQQSHGCIAVNFWYDMEYDLKYSYFQLMDTLTRATGLD
notes: JMJD7, mouse; The GST-derived, tag-free form is stated for the crystals; also called mJMJD7; GST-free JMJD7
stoichiometry N [2]: 2
